The values that follow come from PMC6800154.

Experiment [1] has as its target Focal adhesion kinase (FAK), endogenous in rat aortic smooth muscle cells (rat (endogenous in RASMs)) (UniProt O35346). In words: co-IP.
A further experiment addresses YFP-FAK (mouse) (UniProt P34152). Put plainly: FRET or BRET. On the technique in general: Bioluminescence resonance energy transfer reports proximity on the nanometre scale.
Sequence of UniProt P34152 (P34152 whole entry): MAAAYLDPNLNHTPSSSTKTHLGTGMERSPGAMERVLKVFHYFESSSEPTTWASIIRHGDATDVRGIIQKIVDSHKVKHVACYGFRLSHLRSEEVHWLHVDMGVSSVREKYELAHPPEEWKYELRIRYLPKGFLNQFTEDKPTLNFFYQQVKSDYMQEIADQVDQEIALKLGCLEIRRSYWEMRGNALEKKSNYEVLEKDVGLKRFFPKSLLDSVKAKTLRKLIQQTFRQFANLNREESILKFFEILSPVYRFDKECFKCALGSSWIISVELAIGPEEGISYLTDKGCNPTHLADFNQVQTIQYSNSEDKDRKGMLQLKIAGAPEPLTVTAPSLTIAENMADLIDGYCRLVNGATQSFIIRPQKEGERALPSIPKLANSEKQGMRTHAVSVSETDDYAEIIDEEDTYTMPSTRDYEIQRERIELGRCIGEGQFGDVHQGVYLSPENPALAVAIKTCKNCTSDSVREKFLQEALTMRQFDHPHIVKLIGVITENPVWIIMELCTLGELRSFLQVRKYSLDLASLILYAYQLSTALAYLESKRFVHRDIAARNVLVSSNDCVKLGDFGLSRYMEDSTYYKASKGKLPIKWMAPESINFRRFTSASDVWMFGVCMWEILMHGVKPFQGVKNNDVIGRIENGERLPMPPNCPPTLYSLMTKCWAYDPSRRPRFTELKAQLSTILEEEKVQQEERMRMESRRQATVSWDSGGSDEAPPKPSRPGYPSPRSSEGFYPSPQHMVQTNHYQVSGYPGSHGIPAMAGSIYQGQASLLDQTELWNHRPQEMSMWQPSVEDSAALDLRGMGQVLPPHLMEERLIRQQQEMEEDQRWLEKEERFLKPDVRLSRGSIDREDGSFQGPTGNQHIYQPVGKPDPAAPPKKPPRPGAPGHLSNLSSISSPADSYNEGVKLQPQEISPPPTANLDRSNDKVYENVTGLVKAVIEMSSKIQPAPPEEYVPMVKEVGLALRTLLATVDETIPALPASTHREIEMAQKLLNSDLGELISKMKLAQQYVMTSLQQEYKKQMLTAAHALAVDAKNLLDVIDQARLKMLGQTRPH

Sequence of UniProt O35346 (O35346 whole entry): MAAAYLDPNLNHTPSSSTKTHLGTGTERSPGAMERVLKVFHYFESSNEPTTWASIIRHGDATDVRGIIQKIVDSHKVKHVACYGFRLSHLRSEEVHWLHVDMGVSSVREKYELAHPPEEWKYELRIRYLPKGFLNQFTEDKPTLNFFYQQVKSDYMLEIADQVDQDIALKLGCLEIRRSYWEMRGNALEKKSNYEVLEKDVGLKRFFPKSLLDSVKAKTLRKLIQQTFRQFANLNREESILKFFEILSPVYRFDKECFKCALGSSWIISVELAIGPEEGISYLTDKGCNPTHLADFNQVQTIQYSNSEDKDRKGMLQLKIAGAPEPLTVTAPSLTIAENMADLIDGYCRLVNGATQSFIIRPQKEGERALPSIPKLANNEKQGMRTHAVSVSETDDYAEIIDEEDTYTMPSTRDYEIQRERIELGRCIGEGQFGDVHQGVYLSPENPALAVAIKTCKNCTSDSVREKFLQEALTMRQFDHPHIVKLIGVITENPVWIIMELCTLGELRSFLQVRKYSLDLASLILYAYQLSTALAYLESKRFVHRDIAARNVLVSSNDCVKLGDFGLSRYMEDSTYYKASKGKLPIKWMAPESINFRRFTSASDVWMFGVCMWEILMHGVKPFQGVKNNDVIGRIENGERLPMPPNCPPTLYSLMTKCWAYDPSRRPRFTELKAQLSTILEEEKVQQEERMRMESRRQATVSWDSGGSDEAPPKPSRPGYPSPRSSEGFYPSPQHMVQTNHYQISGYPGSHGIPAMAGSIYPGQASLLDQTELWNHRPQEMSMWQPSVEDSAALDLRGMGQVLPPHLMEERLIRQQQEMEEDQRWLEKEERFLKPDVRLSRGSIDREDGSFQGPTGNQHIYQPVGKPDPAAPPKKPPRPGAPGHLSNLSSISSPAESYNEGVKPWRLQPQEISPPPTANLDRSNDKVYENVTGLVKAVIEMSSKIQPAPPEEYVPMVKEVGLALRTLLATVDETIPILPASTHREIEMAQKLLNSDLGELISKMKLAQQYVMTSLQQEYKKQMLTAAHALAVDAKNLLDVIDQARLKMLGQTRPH

Regarding “cyan fluorescent protein (CFP) S217A-FRNK (natural protein)”, the fold co-immunoprecipitation against WT-FRNK in experiment [1] came to 5 fold. This substance also gave an FRET efficiency with YFP-FAK (mouse) of 53%.
